Laboratory results from the RNAGym collection of RNA variant scans (doi:10.1093/molbev/msab373).

B1: Azoarcus group I ribozyme (parent)
chain: GUGCCUUGCGCCGGGAAACCACGCAAGGGAUGGUGUCAAAUUCGGCGAAACCUAAGCGCCCGCCCGGGCGUAUGGCAACGCCGAGCCAAGCUUCGGCGCCUGCGCCGAUGAAGGUGUAGAGACUAGACGGCACCCACCUAAGGCAAACGCUAUGGUGAAGGCAUAGUCCAGGGAGUGGCGAAAGUCACACAAACCGG

Variants of: B1
Assay: reverse-splicing fitness (ratio to wild type); higher = more active; in vitro selection; Mg2+ level not given
Summary of the method: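 An in vitro group I ribozyme library with randomized positions was T7-transcribed and gel-purified. In triplicate, 10 pmol RNA in EPPS pH 7.5 was reacted with 50 pmoles of a 30-nt RNA substrate for 1 h at 37 °C across several added MgCl2 levels (1–48 mM), then stopped with EDTA. Products were reverse transcribed from a substrate-complementary primer, PCR-amplified and sequenced (HiSeq 4000). Fitness is a variant's read proportion after selection over that before, normalised to wild type.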

Row | Variant | reverse-splicing fitness
1 | C82G A111U A120G A145G C150G C169G | 0.00782
2 | C82G A111U A120G A145G C150G C169A | 0.00911
3 | C82G A111U A120G A145G C150G C169U | 0.00909
4 | C82G A111U A120G A145C C150U C169G | 0.00915
5 | C82G A111U A120G A145C C150U C169U | 0.00738
6 | C82G A111U A120G A145C C150U C169A | 0.00886
7 | C82G A111U A120G C150G C169A U176C | 0.0111
8 | C82G A111U A120G C150G C169A U176G | 0.00726
9 | C82G A111U A120G C150G C169A U176A | 0.0115
10 | C82G A111U A120G | 0.0168
11 | C82G A111U A120C C150U C169U | 0.0125
12 | C82G A111U A120C C150U C169A | 0.0105
13 | C82G A111U A120C C150U C169G | 0.00965
14 | C82G A111U A120G C150U C169A U176A | 0.0173
15 | C82G A111U A120G C150U C169A U176G | 0.00614
16 | C82G A111U A120G C150U C169A U176C | 0.0182
17 | C82G A111U A120G C150A C169G U176A | 0.0227
18 | C82G A111U A120G C150A C169G U176G | 0.00607
19 | C82G A111U A120G C150A C169G U176C | 0.0245
20 | C82G A111U A120C C150U C169U U176G | 0.00768
21 | C82G A111U A120C C150U C169U U176A | 0.0146

Row | Variant | reverse-splicing fitness
22 | C82G A111U A120C C150U C169U U176C | 0.0139
23 | C82G A111U A120G A145C C150A C169G | 0.00827
24 | C82G A111U A120G A145C C150A C169A | 0.00828
25 | C82G A111U A120G A145C C150A C169U | 0.00694
26 | C82G A111U A120G A145G C150U U176G | 0.00777
27 | C82G A111U A120G A145G C150U U176C | 0.0167
28 | C82G A111U A120G A145G C150U U176A | 0.00946
29 | C82G A111U A120C C150A C169G | 0.00894
30 | C82G A111U A120C C150A C169U | 0.0114
31 | C82G A111U A120C C150A C169A | 0.0127
32 | C82G A111U A120G A145U C150G C169G U176A | 0.00644
33 | C82G A111U A120G A145U C150G C169G U176C | 0.00489
34 | C82G A111U A120G A145U C150G C169G U176G | 0.00425
35 | C82G A111U A120C A145U C150U C169G U176G | 0.00568
36 | C82G A111U A120C A145U C150U C169G U176C | 0.0194
37 | C82G A111U A120C A145U C150U C169G U176A | 0.016
38 | C82G A111U A120C A145U C169U U176G | 0.00499
39 | C82G A111U A120C A145U C169U U176C | 0.0158
40 | C82G A111U A120C A145U C169U U176A | 0.0149
41 | C82G A111U A120C A145U C150U C169A U176G | 0.00636
42 | C82G A111U A120G A145C C150G U176G | 0.00342

Row | Variant | reverse-splicing fitness
43 | C82G A111U A120G A145C C150G U176C | 0.0105
44 | C82G A111U A120G A145C C150G U176A | 0.0058
45 | C82G A111U A120G A145C C150A C169U U176C | 0.0103
46 | C82G A111U A120G A145C C150A C169U U176A | 0.0211
47 | C82G A111U A120G A145C C150A C169U U176G | 0.00529
48 | C82G A111U A120G A145U C169U U176C | 0.0158
49 | C82G A111U A120G A145U C169U U176G | 0.00419
50 | C82G A111U A120G A145U C169U U176A | 0.0185
51 | C82G A111U A120G A145U C150A U176G | 0.00661
52 | C82G A111U A120G A145U C150A U176C | 0.0173
53 | C82G A111U A120G A145U C150A U176A | 0.0108
54 | C82G A111U A120C A145U C169A U176C | 0.0142
55 | C82G A111U A120C A145U C169A U176A | 0.015
56 | C82G A111U A120C A145U C169A U176G | 0.00591
57 | C82G A111U A120G C150G C169U U176C | 0.0123
58 | C82G A111U A120G C150G C169U U176A | 0.00893
59 | C82G A111U A120G C150G C169U U176G | 0.00592
60 | C82G A111U A120G C150A C169U U176C | 0.0215
61 | C82G A111U A120G C150A C169U U176A | 0.0244
62 | C82G A111U A120G C150A C169U U176G | 0.00759
63 | C82G A111U A120G A145G C150A U176G | 0.00873

Row | Variant | reverse-splicing fitness
64 | C82G A111U A120G A145G C150A U176C | 0.0219
65 | C82G A111U A120G A145G C150A U176A | 0.011
66 | C82G A111U A120G A145U C150U C169G | 0.0123
67 | C82G A111U A120G A145U C150U C169A | 0.0117
68 | C82G A111U A120G A145U C150U C169U | 0.00944
69 | C82G A111U A120G A145G U176A | 0.0125
70 | C82G A111U A120G A145G U176C | 0.0176
71 | C82G A111U A120G A145G U176G | 0.0077
72 | C82G A111U A120G A145U U176A | 0.0138
73 | C82G A111U A120G A145U U176C | 0.0193
74 | C82G A111U A120G A145U U176G | 0.00635
75 | C82G A111U A120G A145U C150A C169A U176G | 0.00527
76 | C82G A111U A120G A145U C150A C169A U176A | 0.0161
77 | C82G A111U A120G A145U C150A C169A U176C | 0.0142
78 | C82G A111U A120C C150U C169G U176A | 0.0159
79 | C82G A111U A120C C150U C169G U176G | 0.00625
80 | C82G A111U A120C C150U C169G U176C | 0.0194
81 | C82G A111U A120G A145G C150G C169A U176C | 0.0126
82 | C82G A111U A120G A145G C150G C169A U176A | 0.0133
83 | C82G A111U A120G A145G C150G C169A U176G | 0.00831
